Assays:
MAEL HMG-box R23A = biological target: T1, MAEL HMG-box R23A (Mus musculus, UniProt Q8BVN9 2-86, R23A); assay: EMSA; 10 mM potassium phosphate pH 7.5, 50 mM KCl, 5% glycerol, 1 mM TCEP, 0.1 mg/ml BSA, 2.5 mM MgCl2, ~1 nM substrate, room temperature 30-60 min; native PAGE in ice bath; conditions: protein: recombinant; tags: GST removed by PreScission (pGex6P2); label: 5' 32P; four-way junction of 4 strands
T1 sequence: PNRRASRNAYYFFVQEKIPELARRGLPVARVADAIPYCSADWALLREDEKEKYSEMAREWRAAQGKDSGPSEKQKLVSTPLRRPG

MAEL HMG-box R25A = biological target: T2, MAEL HMG-box R25A (Mus musculus, UniProt Q8BVN9 2-86, R25A); assay: as above; conditions: protein: recombinant; tags: GST removed by PreScission (pGex6P2); label: 5' 32P; four-way junction of 4 strands
T2 sequence: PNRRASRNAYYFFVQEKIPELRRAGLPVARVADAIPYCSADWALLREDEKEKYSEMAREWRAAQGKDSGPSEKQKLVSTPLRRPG

MAEL HMG-box R8A = biological target: T3, MAEL HMG-box R8A (Mus musculus, UniProt Q8BVN9 2-86, R8A); assay: as above; conditions: protein: recombinant; tags: GST removed by PreScission (pGex6P2); label: 5' 32P; four-way junction of 4 strands
T3 sequence: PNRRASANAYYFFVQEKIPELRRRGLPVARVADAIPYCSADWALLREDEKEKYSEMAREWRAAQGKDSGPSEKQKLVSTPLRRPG

MAEL HMG-box R31A = biological target: T4, MAEL HMG-box R31A (Mus musculus, UniProt Q8BVN9 2-86, R31A); assay: as above; conditions: protein: recombinant; tags: GST removed by PreScission (pGex6P2); label: 5' 32P; four-way junction of 4 strands
T4 sequence: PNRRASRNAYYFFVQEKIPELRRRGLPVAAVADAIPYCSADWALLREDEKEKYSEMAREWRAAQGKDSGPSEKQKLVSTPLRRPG

HMGB1a (HMGB1 box A) [1] = biological target: T5, HMGB1a (HMGB1 box A) (Mus musculus, UniProt P63158 2-86); assay: EMSA; two complexes; 10 mM potassium phosphate pH 7.5, 50 mM KCl, 5% glycerol, 1 mM TCEP, 0.1 mg/ml BSA, 2.5 mM MgCl2, ~1 nM substrate, room temperature 30-60 min; native PAGE in ice bath; conditions: protein: recombinant; tags: GST removed by PreScission (pGex6P2); label: 5' 32P; four-way junction of 4 strands
T5 sequence: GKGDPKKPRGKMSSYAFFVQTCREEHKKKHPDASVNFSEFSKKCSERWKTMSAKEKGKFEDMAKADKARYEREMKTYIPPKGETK

SRY HMG-box [2] = biological target: T6, SRY HMG-box (Mus musculus (129S4), UniProt Q05738 2-86); assay: EMSA; five complexes; 10 mM potassium phosphate pH 7.5, 50 mM KCl, 5% glycerol, 1 mM TCEP, 0.1 mg/ml BSA, 2.5 mM MgCl2, ~1 nM substrate, room temperature 30-60 min; native PAGE in ice bath; conditions: protein: recombinant; tags: GST removed by PreScission (pGex6P2); label: 5' 32P; four-way junction of 4 strands
MAEL HMG-box Q16A = biological target: T7, MAEL HMG-box Q16A (Mus musculus, UniProt Q8BVN9 2-86, Q16A); assay: EMSA; same as wild type; 10 mM potassium phosphate pH 7.5, 50 mM KCl, 5% glycerol, 1 mM TCEP, 0.1 mg/ml BSA, 2.5 mM MgCl2, ~1 nM substrate, room temperature 30-60 min; native PAGE in ice bath; conditions: protein: recombinant; tags: GST removed by PreScission (pGex6P2); label: 5' 32P; four-way junction of 4 strands
T7 sequence: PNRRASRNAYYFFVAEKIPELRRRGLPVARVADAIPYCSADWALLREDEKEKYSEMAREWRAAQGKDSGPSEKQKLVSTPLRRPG

MAEL HMG-box [3] = biological target: T8, MAEL HMG-box (Mus musculus, UniProt Q8BVN9 2-86); assay: EMSA; 10 mM potassium phosphate pH 7.5, 50 mM KCl, 5% glycerol, 1 mM TCEP, 0.1 mg/ml BSA, 2.5 mM MgCl2, ~1 nM substrate, room temperature 30-60 min; native PAGE in ice bath; conditions: protein: recombinant, tags: GST removed by PreScission (pGex6P2), label: 5' 32P
T8 sequence: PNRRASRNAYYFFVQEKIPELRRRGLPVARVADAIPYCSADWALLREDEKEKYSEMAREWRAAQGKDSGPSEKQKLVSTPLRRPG

MAEL HMG-box [4] = biological target: T8, MAEL HMG-box; assay: EMSA; complex from 0.5 uM protein; cooperative; fully bound; 10 mM potassium phosphate pH 7.5, 50 mM KCl, 5% glycerol, 1 mM TCEP, 0.1 mg/ml BSA, 2.5 mM MgCl2, ~1 nM substrate, room temperature 30-60 min; native PAGE in ice bath; conditions: protein: recombinant; tags: GST removed by PreScission (pGex6P2); label: 5' 32P; folded
HMGB1a (HMGB1 box A) [5] = biological target: T5, HMGB1a (HMGB1 box A); assay: EMSA; 10 mM potassium phosphate pH 7.5, 50 mM KCl, 5% glycerol, 1 mM TCEP, 0.1 mg/ml BSA, 2.5 mM MgCl2, ~1 nM substrate, room temperature 30-60 min; native PAGE in ice bath; conditions: protein: recombinant; tags: GST removed by PreScission (pGex6P2); label: 5' 32P; blunt
SRY HMG-box [6] = biological target: T6, SRY HMG-box; assay: EMSA; 2.5 mM Mg2+; average of titration and cold competition; 10 mM potassium phosphate pH 7.5, 50 mM KCl, 5% glycerol, 1 mM TCEP, 0.1 mg/ml BSA, 2.5 mM MgCl2, ~1 nM substrate, room temperature 30-60 min; native PAGE in ice bath; conditions: protein: recombinant; tags: GST removed by PreScission (pGex6P2); label: 5' 32P; blunt
MAEL HMG-box [7] = biological target: T8, MAEL HMG-box; assay: EMSA; 2.5 mM Mg2+; binding incomplete; 10 mM potassium phosphate pH 7.5, 50 mM KCl, 5% glycerol, 1 mM TCEP, 0.1 mg/ml BSA, 2.5 mM MgCl2, ~1 nM substrate, room temperature 30-60 min; native PAGE in ice bath; conditions: protein: recombinant; tags: GST removed by PreScission (pGex6P2); label: 5' 32P; four-way junction of 4 strands
HMGB1a (HMGB1 box A) [8] = biological target: T5, HMGB1a (HMGB1 box A); assay: EMSA; multiple intermediate complexes; 10 mM potassium phosphate pH 7.5, 50 mM KCl, 5% glycerol, 1 mM TCEP, 0.1 mg/ml BSA, 2.5 mM MgCl2, ~1 nM substrate, room temperature 30-60 min; native PAGE in ice bath; conditions: protein: recombinant; tags: GST removed by PreScission (pGex6P2); label: 5' 32P; four-way junction of 4 strands
MAEL HMG-box [9] = biological target: T8, MAEL HMG-box; assay: EMSA; no appreciable binding; 10 mM potassium phosphate pH 7.5, 50 mM KCl, 5% glycerol, 1 mM TCEP, 0.1 mg/ml BSA, 2.5 mM MgCl2, ~1 nM substrate, room temperature 30-60 min; native PAGE in ice bath; conditions: protein: recombinant; tags: GST removed by PreScission (pGex6P2); label: 5' 32P; folded

T6 sequence (Q05738 2-86): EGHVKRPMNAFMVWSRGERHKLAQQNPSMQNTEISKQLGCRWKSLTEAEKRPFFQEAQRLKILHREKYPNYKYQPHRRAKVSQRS

B1: DNA 4WJ (structured_DNA)
DNA 1: CCGACAGGACTGTCAACCAGGTAATATACCACTTGCGG
DNA 2: CCGCAAGTGGTATATTACCTGGTACGCGTTCACGG
DNA 3: CCGTGAACGCGTGGTGCGAATCGG
DNA 4: CCGATTCGCACCTGACAGTCCTGTCGG
MAEL HMG-box R23A
  binding result: no binding
MAEL HMG-box R25A
  binding result: no binding
MAEL HMG-box R8A
  binding result: no binding
MAEL HMG-box R31A
  binding result: no binding
HMGB1a (HMGB1 box A) [1]
  binding result: binds
SRY HMG-box [2]
  binding result: binds
MAEL HMG-box Q16A
  binding result: binds

## GGGACCAGAAGGUCCCG (structured_RNA) [RNA hairpin 2]
MAEL HMG-box [3]; hairpin
  binding result: no binding

B2: L1_Md_F2 277-nt RNA (structured_RNA)
RNA: GGGUUCUGGCUAUUAUAAAUAAGGCUGCUAUGAACAUAGUGGAGCAUGUGUCCUUCUUACCGGUUGGGGCAUCUUCUGGAUAUAUGCCCAGGAGAGGUAUUGCUGGAUCCUCCGGUAGUACUAUGUCCAAUUUUCUGAGGAACCACCAGACUGAUUUCCAGAGUGGUUGUACAGCUUGCAAUCCCACCAGCAAUGAAGGCGUGUUCCUCUUUCUCCACAUCCACGCCAGCAUCUGCUGUCACCUGAAUUUUUGAUCUUAGCCAUUCUGACUGGUGUG
MAEL HMG-box [4]
  binding result: binds

## GGGAAAGGGUUAGGGUUAGGGUUAGGGAA (ssRNA) [ssRNA]
MAEL HMG-box [3]
  binding result: no binding

B3: dsDNA-SRY 15 bp (dsDNA)
DNA 1: GCGCAACAATGCCGG
DNA 2: CCGGCATTGTTGCGC
MAEL HMG-box [3]; blunt
  binding result: no binding
HMGB1a (HMGB1 box A) [5]
  binding result: no binding
SRY HMG-box [6]
  Kd: ~12 nM

B4: RNA 4WJ (structured_RNA)
RNA 1: CCGACAGGACUGUCAACCAGGUAAUAUACCACUUGCGG
RNA 2: CCGCAAGUGGUAUAUUACCUGGUACGCGUUCACGG
RNA 3: CCGUGAACGCGUGGUGCGAAUCGG
RNA 4: CCGAUUCGCACCUGACAGUCCUGUCGG
modifications: 5'-terminal dC and 3'-terminal dG on each strand
MAEL HMG-box R8A
  binding result: no binding
MAEL HMG-box [7]
  Kd: 638 nM
HMGB1a (HMGB1 box A) [8]
  binding result: binds

B5: chr2 noPeak 177-nt RNA (structured_RNA)
RNA: GGGGGGGAUGAAAAAUUCAUCUAAUUUAGUACAAUGUAAAUAUAAAGAGUUUGGAAAUUUUUGAAAACUUGAGGUCAUGUUAAAAAAGCAACAACUCUCCUUUUAGAUUGUCCUAUUUGUGUCUUGAAAUUCCUAUGCUGUUCUAAACCCAUUUGGUAUGUAUGCUCCUGCCCAAAC
MAEL HMG-box [9]
  binding result: no binding

B6: methylated dsDNA 16 bp (dsDNA)
DNA 1: CAGTCGACGTCGTGAC
DNA 2: GTCACGACGTCGACTG
modifications: 5-methyl-dC at position 8 of each strand
MAEL HMG-box [3]; blunt
  binding result: no binding

## AAAGGGTTAGGGTTAGGGTTAGGGAA (ssDNA) [ssDNA (25-nt)]
MAEL HMG-box [3]
  binding result: no binding

## GCGCAACAAUGCCGG (structured_RNA) [RNA hairpin 1]
MAEL HMG-box [3]; hairpin
  binding result: no binding
